Measurements taken from US7067474B1, “Agents for treating human illnesses based on β-catenin, and the production and use thereof” (Max-Delbruck-Centrum fur Molekulare Medizin, priority 1998, dated 2006).
Numbering of substitutions follows the chain as printed.

How the values were obtained:
Assay in all cases: yeast 2-hybrid; - means 60-100% of the wild type interaction
[1] = target: T1, human β-catenin (Leu218-Leu781) mutant Trp 383 to alanine, Gal-4 activation domain fusion (human, UniProt P35222 218-781)
T1 sequence: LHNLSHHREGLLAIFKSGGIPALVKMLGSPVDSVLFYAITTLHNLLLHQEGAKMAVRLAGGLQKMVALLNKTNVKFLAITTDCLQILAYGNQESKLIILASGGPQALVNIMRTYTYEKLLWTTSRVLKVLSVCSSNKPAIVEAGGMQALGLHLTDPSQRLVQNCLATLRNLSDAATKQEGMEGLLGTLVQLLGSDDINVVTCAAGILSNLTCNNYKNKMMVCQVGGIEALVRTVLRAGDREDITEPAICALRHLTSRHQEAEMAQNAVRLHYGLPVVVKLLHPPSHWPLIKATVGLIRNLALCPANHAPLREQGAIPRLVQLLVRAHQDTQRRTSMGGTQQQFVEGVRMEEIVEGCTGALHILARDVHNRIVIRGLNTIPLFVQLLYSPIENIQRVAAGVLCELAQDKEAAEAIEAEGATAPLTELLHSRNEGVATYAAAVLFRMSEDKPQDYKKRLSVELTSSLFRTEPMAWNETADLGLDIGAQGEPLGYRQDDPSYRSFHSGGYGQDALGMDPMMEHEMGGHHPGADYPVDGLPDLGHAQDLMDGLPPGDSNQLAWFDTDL
Procedure: (§1) 4. Preparation and testing of mutants of β-catenin modulating the interaction with LEF-1, APC, conductin or E-cadherin The mutagenesis of β-catenin in the armadillo repeats 3–8 was carried out by means of the "mutagenesis kit" of the company Clontech according to the producer's record and the mutants were checked by sequencing (FIG. 5). In all mutants the original amino acid was substituted by alanine. For analyzing the interactions the cDNA of human β-catenin (armadillo repeat 3 up to the C-terminal end of the protein) coding for the amino acids Leu218–Leu7 µl or its mutants was cloned into the fusion vector for the activation domain of Gal-4 (pGAD424, Clontech). The cDNA for the binding domains of the interaction partners was cloned into the Lex-A fusion vector BTM 116. To this end, the cDNA of LEF-1 for the amino acids 1–99, conductin for the amino acids Ala342–ARG465; of human APC for the amino acids His1012–Glu1215 (APC 15 amino acid repeats) and for the amino acids Ser1259Asp 1400 (APC 20 amino acid repeats) and E-cadherin for the amino acids Gin773–Asp884 (cytoplasmatic domain) were amplified with the respective primers PCR. The interaction of the Lex-A hybrids with β-catenin and its mutants was quantified by means of the β-galactosidase reporter activity in the yeast 2-hybrid system (report: "Matchmaker". Clontech) (Tab. 2 and FIG. 6).

[2] = target: T2, human β-catenin (Leu218-Leu781) mutant Arg 342 to alanine, Gal-4 activation domain fusion (human, UniProt P35222 218-781)
T2 sequence: T1 sequence with R125A, A166W
Procedure: as §1

[3] = target: T3, human β-catenin (Leu218-Leu781) mutant Trp 338 to alanine, Gal-4 activation domain fusion (human, UniProt P35222 218-781)
T3 sequence: T1 sequence with W121A, A166W
Procedure: as §1

Measured: binding result

B1: LEF-1 amino acids 1-99 fused to Lex-A (vector BTM 116) (other, UniProt P0A7C2 1-202, looked up)
chain: MKALTARQQEVFDLIRDHISQTGMPPTRAEIAQRLGFRSPNAAEEHLKALARKGVIEIVSGASRGIRLLQEEEEGLPLVGRVAAGEPLLAQQHIEGHYQVDPSLFKPNADFLLRVSGMSMKDIGIMDGDLLAVHKTQDVRNGQVVVARIDDEVTVKRLKKQGNKVELLPENSEFKPIVVDLRQQSFTIEGLAVGVIRNGDWLMPQLSGGGGGGDPELCATDEMIPFKDEGDPQKEKIFAEISHPEEEGDLADIKSSLVNESEIIPASNGHEVVRQAPSSQEPYHDKAREHPDEGKHPDGGL
notes: Order of the fusion follows the vector; also called LEF-1/TCF-4
binds: all assays above
